Assays:
human CXCR4 (human) [1] = test: periplasmic fraction (1:10), displacement of [125I]-CXCL12, HEK293T-CXCR4 membranes; - = 0-29%, + = 30-69%, ++ = 70-100%
human CXCR4 (human) [2] = target: human CXCR4 (human)
human CXCR4 (human) [3] = test: competition with [125I]-238D2 on HEK293T-CXCR4 membranes
human CXCR4 (human) [4] = test: competition vs [125I]-CXCL12 (40 pM), membranes of HEK293T cells expressing CXCR4
human CXCR4 (human) [5] = test: competition vs [125I]-238D4 (3 nM), membranes of HEK293T cells expressing CXCR4
human CXCR4 (human) [6] = test: competition with [125I]-CXCL12 on HEK293T-CXCR4 membranes
human CXCR4 (human) [7] = test: competition with [125I]-238D4 on HEK293T-CXCR4 membranes
CCR5 = CCR5 (UniProt P51681); test: cell-based or functional assay
human CXCR4 (human) [8] = test: cell-based or functional assay
human CXCR4 (human) [9] = test: competition vs [125I]-238D2 (3 nM), membranes of HEK293T cells expressing CXCR4

Chain of CCR5 (P51681 whole entry): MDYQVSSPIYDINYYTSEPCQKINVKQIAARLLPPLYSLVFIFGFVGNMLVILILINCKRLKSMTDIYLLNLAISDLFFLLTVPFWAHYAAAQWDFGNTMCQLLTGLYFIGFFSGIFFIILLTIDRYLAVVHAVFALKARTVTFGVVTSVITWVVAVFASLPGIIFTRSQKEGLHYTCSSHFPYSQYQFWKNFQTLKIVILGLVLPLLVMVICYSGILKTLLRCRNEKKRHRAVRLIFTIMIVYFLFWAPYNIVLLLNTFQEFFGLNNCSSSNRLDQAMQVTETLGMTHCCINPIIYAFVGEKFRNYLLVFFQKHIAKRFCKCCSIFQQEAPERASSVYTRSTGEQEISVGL

B1: Nanobody 238D4 (VHH, from a related filing, part only)
VHH: EVQLMESGGGLVQAGGSLRLSCAASGRTFNNYAMGWFRRAPGKEREFVAAITRSGVRSGVSAIYGDSVKDRFTISRDNAKNTLYLQMNSLKPEDTAVYTCAASAIGSGALRRFEYDYSGQGTQVTVSS
With B1 the percent inhibition of specific [125I]-CXCL12 binding (human CXCR4 (human) [1]) was 70 to 100%, the IC50 (read off the curve), migration of Jurkat cells towards 0.3 nM CXCL12 (human CXCR4 (human) [2]) was 9 nM and the IC50 (read off the curve) (human CXCR4 (human) [3]) was 3 nM. For the same binder, the Displacem. (%) (human CXCR4 (human) [4]) was 99%, the pKi (human CXCR4 (human) [4]) was 8.22 and the Displacem. (%) (human CXCR4 (human) [5]) was 103%. For the same binder, the pKi (human CXCR4 (human) [5]) was 8.55, the IC50 (read off the curve) (human CXCR4 (human) [6]) was 10 nM and the IC50 (read off the curve) (human CXCR4 (human) [7]) was 4 nM. The Anti-HIV-1 activity (in nM), PBMC/BaL (CCR5) was > 100 nM, the Anti-HIV-1 activity (in nM), U87.CD4.CCR5/BaL (CCR5) was > 500 nM and the IC50, HIV-1 BaL, PBMC donor 1 (CCR5) was > 1000 ng/mL. For the same binder, the IC50, HIV-1 BaL, PBMC donor 2 (CCR5) was > 1000 ng/mL, the IC90, HIV-1 BaL, PBMC donor 1 (CCR5) was > 1000 ng/mL and the IC90, HIV-1 BaL, PBMC donor 2 (CCR5) was > 1000 ng/mL. The nM IC50, HIV-1 BAL, PBMC donor 1 (CCR5) was > 67 nM, the nM IC50, HIV-1 BAL, PBMC donor 2 (CCR5) was > 67 nM and the Anti-HIV-1 activity (in nM), MT-4/HE (human CXCR4 (human) [8]) was 82 nM. The Anti-HIV-1 activity (in nM), MT-4/NL4.3 (human CXCR4 (human) [8]) was 40.3 nM, the Anti-HIV-1 activity (in nM), PBMC/HE (human CXCR4 (human) [8]) was 13.6 nM and the Anti-HIV-1 activity (in nM), PBMC/NL4.3 (human CXCR4 (human) [8]) was 13.7 nM. For the same binder, the Anti-HIV-1 activity (in nM), U87.CD4.CXCR4/NL4.3 (human CXCR4 (human) [8]) was 107 nM, the CRE activation, HEK293T-CXCR4-CREbgal/0.01-100 nM CXCL12, Imax (%) (human CXCR4 (human) [8]) was 90% and the CRE activation, HEK293T-CXCR4-CREbgal/0.01-100 nM CXCL12, pKi or pIC50 (pKB by the text) (human CXCR4 (human) [8]) was 7.7. It also gave a Chemotaxis, Jurkat/0.3 nM CXCL12, Imax (%) (human CXCR4 (human) [8]) of 101%, a Chemotaxis, Jurkat/0.3 nM CXCL12, pKi or pIC50 (human CXCR4 (human) [8]) of 8.31 and an IC50, HIV-1 NL4.3, MT-4 cells, exp. 1 (human CXCR4 (human) [8]) of 833 ng/mL. The IC50, HIV-1 NL4.3, PBMC donor 1 (human CXCR4 (human) [8]) was > 1000 ng/mL, the IC50, HIV-1 NL4.3, PBMC donor 2 (human CXCR4 (human) [8]) was 551 ng/mL and the IC50, HIV-1 UG270, PBMC donor 1 (human CXCR4 (human) [8]) was > 1000 ng/mL. For the same binder, the IC50, HIV-1 UG270, PBMC donor 2 (human CXCR4 (human) [8]) was > 1000 ng/mL, the IC90, HIV-1 NL4.3, MT-4 cells, exp. 1 (human CXCR4 (human) [8]) was > 1000 ng/mL and the IC90, HIV-1 NL4.3, PBMC donor 1 (human CXCR4 (human) [8]) was > 1000 ng/mL. For the same binder, the IC90, HIV-1 NL4.3, PBMC donor 2 (human CXCR4 (human) [8]) was > 1000 ng/mL, the IC90, HIV-1 UG270, PBMC donor 1 (human CXCR4 (human) [8]) was > 1000 ng/mL and the IC90, HIV-1 UG270, PBMC donor 2 (human CXCR4 (human) [8]) was > 1000 ng/mL. The IP accumulation, HEK293T-CXCR4-Gαqi5/30 nM CXCL12, Imax (%) (human CXCR4 (human) [8]) was 90%, the IP accumulation, HEK293T-CXCR4-Gαqi5/30 nM CXCL12, pKi or pIC50 (human CXCR4 (human) [8]) was 8.39 and the nM IC50, HIV-1 NL4.3, PBMC donor 1 (human CXCR4 (human) [8]) was > 67 nM. The nM IC50, HIV-1 NL4.3, PBMC donor 2 (human CXCR4 (human) [8]) was 36.7 nM, the nM IC50, HIV-1 UG270, PBMC donor 1 (human CXCR4 (human) [8]) was > 67 nM and the nM IC50, HIV-1 UG270, PBMC donor 2 (human CXCR4 (human) [8]) was > 67 nM. For the same binder, the Displacem. (%) (human CXCR4 (human) [9]) was 101% and the pKi (human CXCR4 (human) [9]) was 8.8.
